{"source": "paper PMC8828063", "about": "“High-resolution mapping of metal ions reveals principles of surface layer assembly in Caulobacter crescentus cells” (Structure(London, England:1993), 2022)", "proteins": {"B1": {"name": "RsaA, S-layer protein of Caulobacter crescentus (wild type, full length) (natural protein, UniProt A0A0H3C8J1 1-1026, looked up)", "chain": "MAYTTAQLVTAYTNANLGKAPDAATTLTLDAYATQTQTGGLSDAAALTNTLKLVNSTTAVAIQTYQFFTGVAPSAAGLDFLVDSTTNTNDLNDAYYSKFAQENRFINFSINLATGAGAGATAFAAAYTGVSYAQTVATAYDKIIGNAVATAAGVDVAAAVAFLSRQANIDYLTAFVRANTPFTAAADIDLAVKAALIGTILNAATVSGIGGYATATAAMINDLSDGALSTDNAAGVNLFTAYPSSGVSGSTLSLTTGTDTLTGTANNDTFVAGEVAGAATLTVGDTLSGGAGTDVLNWVQAAAVTALPTGVTISGIETMNVTSGAAITLNTSSGVTGLTALNTNTSGAAQTVTAGAGQNLTATTAAQAANNVAVDGGANVTVASTGVTSGTTTVGANSAASGTVSVSVANSSTTTTGAIAVTGGTAVTVAQTAGNAVNTTLTQADVTVTGNSSTTAVTVTQTAAATAGATVAGRVNGAVTITDSAAASATTAGKIATVTLGSFGAATIDSSALTTVNLSGTGTSLGIGRGALTATPTANTLTLNVNGLTTTGAITDSEAAADDGFTTINIAGSTASSTIASLVAADATTLNISGDARVTITSHTAAALTGITVTNSVGATLGAELATGLVFTGGAGADSILLGATTKAIVMGAGDDTVTVSSATLGAGGSVNGGDGTDVLVANVNGSSFSADPAFGGFETLRVAGAAAQGSHNANGFTALQLGATAGATTFTNVAVNVGLTVLAAPTGTTTVTLANATGTSDVFNLTLSSSAALAAGTVALAGVETVNIAATDTNTTAHVDTLTLQATSAKSIVVTGNAGLNLTNTGNTAVTSFDASAVTGTGSAVTFVSANTTVGEVVTIRGGAGADSLTGSATANDTIIGGAGADTLVYTGGTDTFTGGTGADIFDINAIGTSTAFVTITDAAVGDKLDLVGISTNGAIADGAFGAAVTLGAAATLAQYLDAAAAGDGSGTSVAKWFQFGGDTYVVVDSSAGATFVSGADAVIKLTGLVTLTTSAFATEVLTLA", "notes": "RsaA, S-layer protein of Caulobacter crescentus CB15N (NA1000), 1,026 amino acid residues; RsaANTD is residues 1-250 and RsaACTD residues 251-1,026; Full-length protein went into crystallisation; also called SLP; wild-type RsaA; source: purified from C. crescentus CB15N (NA1000) cells by low pH exposure (HiTrap SP flow-through, HiTrap Q)"}}, "biological_target": "the molecule itself", "experiment": "crystal structure; RsaA 30 mg/mL with 5 mM CaCl2; 0.07 M KSCN, 24% (w/v) PEG 8000, 0.075 M TAPS/NaOH pH 8.5, 19°C; stacked S-layer sheets in three-dimensional crystals; long-wavelength anomalous diffraction, molecular replacement with PDB 5N8P", "data": [{"protein": "B1", "values": [{"measurement": "stoichiometry N", "value": 6}]}]}
